In paper PMC7954794, “Protein context shapes the specificity of SH3 domain-mediated interactions in vivo” (Nature Communications, 2021):

Tested on: PPIs identified as affected by the SH3 domain deletions
Assay: Liquid DHFR-PCA low-throughput validation of PPIs affected by SH3 deletion (Fig. S1D-E)
Format: cell-based, Saccharomyces cerevisiae
Settings: label = prey, liquid DHFR-PCA, prey _1 = lost, _2 = gained in screen
Procedure, shortened: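 Yeast diploids from DHFR-PCA mating grown 48 h in synthetic complete MSG medium pH 6.0 with NAT and HPH, normalized to 1 OD and diluted to 0.1 OD in liquid PCA selection medium. Growth followed by OD every 15 min for 72 h at 30 °C.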

B1: YER008C_1 (protein, UniProt P33332 1-1336, looked up)
Exocyst complex component SEC3: MRSSKSPFKRKSHSRETSHDENTSFFHKRTISGSSAHHSRNVSQGAVPSSAPPVSGGNYSHKRNVSRASNSSQTSNFLAEQYERDRKAIINCCFSRPDHKTGEPPNNYITHVRIIEDSKFPSSRPPPDSKLENKKKRLLILSAKPNNAKLIQIHKARENSDGSFQIGRTWQLTELVRVEKDLEISEGFILTMSKKYYWETNSAKERTVFIKSLITLYIQTFEGHVPELVNWDLSLFYLDERSYQRAVITNRPGSVSPIKSPTSNFTTNTTQSVGSVPFSAPTERTRRSETESVNPVSTPASVEYHAGMKSLNKAPYSSNSTLNEVNKRYELEQQQQQEEAELRRLEEQKRLQLQKENEMKRLEEERRIKQEERKRQMELEHQRQLEEEERKRQMELEAKKQMELKRQRQFEEEQRLKKERELLEIQRKQREQETAERLKKEEQEALAKKEEEEKSKRNKVDNESYTQEINGKVDNLLEDLNAVLAEETETTPTMQNGTYVPERSTARAHDQLKKPLNIAKVESLGGSDLNDSISLSDEIAGLNTSNLSGEDQDEKNDLSFEKGDEVRYSNNFEGEAPHVYHEVSIIQEEAPAVSQKLILPEENNESEALIESKEEIKTMENIDDEVLLEILTDINWSIEDDADSMIERIDLRLAETEYLFNQNLLSLQKIGPNIRPYEDKVNDECHRIIPTLSLFLMEMSNFSNDIENVESQDNGLQVESANKKLLWNTLDELLKTVSLDEISLNQLLECPIREKNLPWMENQLNLLLKAFQAIGSDGNEVEYNLREISGLKQRLQFYEKVTKIFLNRIVEEMQKKFSNIRGQDISHDQMIRILTTLLIFSPLILFCKEISQKSYQAIVENWNVSIQPVYMELWTKKISQLQGIDTNDEKMNELSLSQLLNEWDTFRKERKTNDINPVFKNSFSLLTECLQTMRQECIVYQNFVEVFFHISSKHNFEEYIKHFNDPDAPPILLDTVKVMQSDREAAVIETQLVSRIFQPIVTRLSSYFVELVKAEPTVAPALTFYLENEIKSLESSNHEFLLSAVTRMYTQIKQVWSDNVEEQVLHFERISNATTNGEILPGILDLPVGLKNSEDLFQFAKRSMDIKDTDEGYESIELMNSSFRKLSIAATRSITHKEVNSSINPNLSDTAALNNDYMETISLLVNSNWLTEMLSMLNFNKDGIFDTSLQNVKKVFDVEKESYASFLLRDTMPKLTAFVYGVSNIIENTNNVNMTNPSRWAAYSRQNLENILLAYTSHEIETLVKRLHTHMVNDFGYHQENAINNVLCDKLWSCIQGQTVSLYLKLYTVIDKHYRGTNIRFTKNDIISAFEEYKNA
In the case of B1, the “Ratio (Deletedscore / WTscore)” value (bait BEM1-1) is reported as 0.9745, the “Ratio (Deletedscore / WTscore)” value (bait BEM1-2) is reported as 0.478 and the “Ratio (Deletedscore / WTscore)” value (bait LSB3) is reported as 0.7503. The “Ratio (Deletedscore / WTscore)” value (bait RVS167) was 0.6394.

B2: YHR064C_1 (protein, UniProt P38788 1-538, looked up)
Ribosome-associated complex …: MSSPVIGITFGNTSSSIAYINPKNDVDVIANPDGERAIPSALSYVGEDEYHGGQALQQLIRNPKNTIINFRDFIGLPFDKCDVSKCANGAPAVEVDGKVGFVISRGEGKEEKLTVDEVVSRHLNRLKLAAEDYIGSAVKEAVLTVPTNFSEEQKTALKASAAKIGLQIVQFINEPSAALLAHAEQFPFEKDVNVVVADFGGIRSDAAVIAVRNGIFTILATAHDLSLGGDNLDTELVEYFASEFQKKYQANPRKNARSLAKLKANSSITKKTLSNATSATISIDSLADGFDYHASINRMRYELVANKVFAQFSSFVDSVIAKAELDPLDIDAVLLTGGVSFTPKLTTNLEYTLPESVEILGPQNKNASNNPNELAASGAALQARLISDYDADELAEALQPVIVNTPHLKKPIGLIGAKGEFHPVLLAETSFPVQKKLTLKQAKGDFLIGVYEGDHHIEEKTLEPIPKEENAEEDDESEWSDDEPEVVREKLYTLGTKLMELGIKNANGVEIIFNINKDGALRVTARDLKTGNAVKGEL
For B2, the “Ratio (Deletedscore / WTscore)” value (bait BEM1-1) was 0.9929 and the “Ratio (Deletedscore / WTscore)” value (bait BUD14) was 0.7471.

B3: YKL051W_1 (protein, UniProt P35735 1-353, looked up)
Protein SFK1: MIQFKSPGNWLFIVPWIAFIPWYGMLIAMLICWASQGHPIYWFMHSEQFPVYISDIGATNLRPLFISCAGWQGLGYVITVALEFFQRSGYLPFQLKKKDPSISDSTSYAEKLHSGKYLMPPYYTKDERNLIFAAFVLGSIGELALLFSSIFSTALYHRVHIAMVSVFVVFMFLSTCCLIAEYFLMGRHYASVHPLASPHFNPQSSEKSFNQDYNTVDELPWYKWKGHVWNKFTISATLKVIWLTLAVVWAICFGAINDRSKSACFEWLLAFWFGIIFMILSADFYLGGRYRQSRYFNHVESFSGYYKYDKALGLYHSEDVLPSDDNAGVIATETASSNIYNNSSSNESIQVVV
With B3 the “Ratio (Deletedscore / WTscore)” value (bait BEM1-1) was 1.076, the “Ratio (Deletedscore / WTscore)” value (bait BEM1-2) was 0.4799 and the “Ratio (Deletedscore / WTscore)” value (bait MYO3) was 0.5607. For the same molecule, the “Ratio (Deletedscore / WTscore)” value (bait MYO5) was 0.761.

B4: YMR109W_1 (protein, UniProt Q04439 1-1219, looked up)
Myosin-5: MAILKRGARKKVHQEPAKRSANIKKATFDSSKKKEVGVSDLTLLSKISDEAINENLKKRFLNATIYTYIGHVLISVNPFRDLGIYTDAVMNEYKGKNRLEVPPHVFAIAESMYYNMKSYNENQCVIISGESGAGKTEAAKRIMQYIAAASSTHTESIGKIKDMVLATNPLLESFGCAKTLRNNNSSRHGKYLEIKFNNQFEPCAGNITNYLLEKQRVVSQIKNERNFHIFYQFTKGASDAYRQTFGVQKPEQYVYTAAAGCISAETIDDLQDYQETLKAMRVIGLGQEEQDQIFRMLAAILWIGNVSFIENEEGNAQVRDTSVTDFVAYLLQIDSQLLIKSLVERIMETNHGMKRGSVYHVPLNIVQADAVRDALAKAIYNNLFDWIVSRVNKSLQAFPGAEKSIGILDIYGFEIFEHNSFEQICINYVNEKLQQIFIQLTLKSEQETYEREKIQWTPIKYFDNKVVCDLIEARRPPGIFAAMNDSVATAHADSNAADQAFAQRLNLFTTNPHFDLRSNKFVIKHYAGDVTYDIDGITDKNKDQLQKDLVELIGTTTNTFLATIFPDTVDRESKRRPPTAGDKIIKSANDLVETLSKAQPSYIRTIKPNETKSPNDYDDRQVLHQIKYLGLQENVRIRRAGFAYRQVFEKFVERFYLLSPHCSYAGDYTWQGDTLDAVKYILQDSSIPQQEYQLGVTSVFIKTPETLFALEHMRDRYWHNMAARIQRAWRRFLQRRIDAATKIQRTIRERKEGNKYEKLRDYGTKVLGGRKERRSMSLLGYRAFMGDYLSCNESKSKGAYIKRQVSIKEKVIFSIHGEALHTKFGRSAQRLKKTFLLTPTTLYIVGQTLVQNAMTYTQDYKIDVRNIQAVSLTNLQDDWVAIKLASSGQPDPLINTYFKTELITHLKRLNDKIQIKIGSAIEYQKKPGKLHSVKCQINESAPKYGDIYKSSTISVRRGNPPNSQVHKKPRKKSSISSGYHASSSQATRRPVSIAAAQHVPTAPASRHSKKPAPPPPGMQNKAATRRSVPNPASTLTASQSNARPSPPTAATRATPAATPAAAAMGSGRQANIPPPPPPPPPSSKPKEPMFEAAYDFPGSGSPSELPLKKGDVIYITREEPSGWSLGKLLDGSKEGWVPTAYMKPHSGNNNIPTPPQNRDVPKPVLNSVQHDNTSANVIPAAAQASLGDGLANALAARANKMRLESDDEEANEDEEEDDW
B4 was tested, and the “Ratio (Deletedscore / WTscore)” value (bait BEM1-1) was 0.9175, the “Ratio (Deletedscore / WTscore)” value (bait BEM1-2) was 0.7054 and the “Ratio (Deletedscore / WTscore)” value (bait BOI2) was 0.9032. For the same molecule, the “Ratio (Deletedscore / WTscore)” value (bait HSE1) was 0.9954, the “Ratio (Deletedscore / WTscore)” value (bait NBP2) was 0.9518 and the “Ratio (Deletedscore / WTscore)” value (bait PIN3) was 0.6702.

B5: YCR002C_1 (protein, UniProt P25342 1-322, looked up)
Cell division control protein …: MDPLSSVQPASYVGFDTITNQIEHRLLKKGFQFNIMVVGQSGLGKSTLINTLFASHLIDSATGDDISALPVTKTTEMKISTHTLVEDRVRLNINVIDTPGFGDFIDNSKAWEPIVKYIKEQHSQYLRKELTAQRERFITDTRVHAILYFLQPNGKELSRLDVEALKRLTEIANVIPVIGKSDTLTLDERTEFRELIQNEFEKYNFKIYPYDSEELTDEELELNRSVRSIIPFAVVGSENEIEINGETFRGRKTRWSAINVEDINQCDFVYLREFLIRTHLQDLIETTSYIHYEGFRARQLIALKENANSRSSAHMSSNAIQR
With B5 the “Ratio (Deletedscore / WTscore)” value (bait BEM1-2) was 0.5157, the “Ratio (Deletedscore / WTscore)” value (bait BOI1) was 0.9522 and the “Ratio (Deletedscore / WTscore)” value (bait NBP2) was 0.7856. For the same molecule, the “Ratio (Deletedscore / WTscore)” value (bait RVS167) was 0.8283.

B6: YDR166C_1 (protein, UniProt P89102 1-971, looked up)
Exocyst complex component SEC5: MDRFQIGDEQLLRFYQLKTINPTHSWAQDSSKLNNEEATSNELGVETSFDILKDFKYGNQISIDKESRAYLNDESLSYIRDPLNGQEMSKELQHLPNDSMRLNYLVNSKQFNVKAFLRDMHKQDSFNDLNNSLDRLDSDIQDQSIHLKQLVGKNFTKYVKIKNKLDQIYKEFDEKTNEKNQCDSPKENQINVESLNKKVDEVIRTTTFKLKPLMDNYQKILNYQATKKFIELNKFYFNLPKSLKRCLTNNDFNEFIIEYSKGLTLRRRFNQSSDASQSLVIKRIWTQIENLLVTYKDLIWNSLINSNFNIDQPQETILSLFSKLLNLENFINNNQRESESGNKNTTSSSNENPILRWMSIKMNGFQNELNELSGHMISKIIHSQRLILQNNTNQDKSQGCVELSYYLKINQLFQIISDTGKDSEGLKSTVEPNKVNTISGTSYLNLNCQPSSQGLTDSPTIIEMWLLILKYINDLWKICDQFIEFWEHIEKFLDGTYQNSIINEKRKENILIGDSNIIESYQKSLILKEEQINEVRLKGEEFITSVSQNLISFFTSSQSSLPSSLKDSTGDITRSNKDSGSPLDYGFIPPNCNGLSCLRYLPKIVEPILKFSTELAQLNITTNGITICRNTLSTIINRCVGAISSTKLRDISNFYQLENWQVYETVTFSSKSQDSSKNLTFEYGVTQFPEIVTSFQEVSIKTTRDLLFAYEKLPIINGISVVSYPSKQLLTGIEIQQIISMEAVLEAILKNAAKDKDNPRNSHTILTLTNLQYFRECAFPNILQYFDDAFEWNLASKNLELFSLLSKMESSIFGNYLSDLKINLRDTLEEKFHEINWPMYTSNSFRVGDYIIEALMILIVVHSECFRIGPQLIHKILIETQIFIARYLFEAFKPYVGNLSNDGSLQIIVDLEFFQKVMGPLLEKDTEATLRACLQNCFQNDTNRLQKCINEINPIVSANLKRTAIQFAAFS
In the case of B6, the “Ratio (Deletedscore / WTscore)” value (bait BEM1-2) is reported as 0.5345 and the “Ratio (Deletedscore / WTscore)” value (bait BOI2) is reported as 0.7084.

B7: YJL151C_2 (protein, UniProt P14359 1-133, looked up)
Protein SNA3: MDRDHINDHDHRMSYSINKDDLLLMVLAVFIPPVAVWKRKGMFNRDTLLNLLLFLLLFFPAIIHACYVVYETSSERSYDLSRRHATAPAVDRDLEAHPAEESQAQPPAYDEDDEAGADVPLMDNKQQLSSGRT
With B7 the “Ratio (Deletedscore / WTscore)” value (bait ABP1) was 1.204 and the “Ratio (Deletedscore / WTscore)” value (bait BZZ1-2) was 1.485.
